Data on 139 substances can be found in the supplement of paper PMC12042874.

± gives the uncertainty stated by the source.

The data set in a line: amyloid nucleation score (Sup35N fusion, yeast selection) (log enrichment); library NNK1; higher = more nucleation; inactive = no reads after selection. Summed up: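 In psi-negative yeast, Sup35N fusions carrying peptides of 20 random codons were induced with 100 μM copper sulfate for 24 hours. The cells then grew 7 days at 30°C on medium lacking adenine and uracil, and plasmid inserts from input and output were Illumina-sequenced, excluding sequences with under 100 input reads. Nucleation score is the DiMSum log enrichment of output over input reads, centred on the mode score of non-aggregating sequences.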
In the case of MSKKMQRPRVAAVGFERFGT, the amyloid nucleation score is -0.174 ± 0.9.

The substance MSLMSRDVVMHIGMSWYSRG returned an amyloid nucleation score of 4.21 ± 0.12.

For the substance MSMLLDSDCLRYFSQEVFWV, the amyloid nucleation score was -0.742 ± 1.4.

For the substance MSRRWV, the amyloid nucleation score was -1.01 ± 0.79.

MSSNMLSEKWASGTEHVGVV: the amyloid nucleation score is -0.657 ± 0.69.

Consider MTALFGRVSG, for which the amyloid nucleation score was -0.134 ± 1.1.

Substance MTEQAQ displayed an amyloid nucleation score of 0.286 ± 1.4.

With MTGQTCRFEGSFRFMERCRK, the amyloid nucleation score is 0.43 ± 1.

For MTRVCL, the amyloid nucleation score is -0.035 ± 0.62.

On to MTSYGSFRKATWNDWISNMS, for which the amyloid nucleation score is -0.393 ± 0.41.

Regarding MTWMPFGPHTAGMMGHLYFG, the amyloid nucleation score was -0.398 ± 0.64.

MTYDGCNSCKHLKSGKLRWC showed an amyloid nucleation score of 0.117 ± 0.29.

For MVFLGCSGLVCERCAGWLAR, the amyloid nucleation score was found to be 5.58 ± 0.11.

MVHKWVIFFNRTVCRLMLPV showed an amyloid nucleation score of 0.589 ± 0.37.

Consider MVHWVILYAADFPIETLNK, for which the amyloid nucleation score entry was “inactive”.

Take MVRGQVNPNSFNARWY: the amyloid nucleation score entry is “inactive”.

MVSNNNLYPF: the amyloid nucleation score result was “inactive”.

In the case of MVVFDRRGLSYPVS, the amyloid nucleation score came to 0.556 ± 0.52.

On to MVVQRLF, for which the amyloid nucleation score is -0.54 ± 0.78.

As to MWELRFVLCLMIHEFRRWHE, the amyloid nucleation score is -0.056 ± 0.64.

As to MWGTCSYSYLDSCRVTLFMR, the amyloid nucleation score turned out to be 2.06 ± 0.2.

The substance MWYLMRTLTLIRFFVSPVGS had an amyloid nucleation score of 0.154 ± 0.31.

MWYVHHCQGSVTLLARGRLC: the amyloid nucleation score is 0.886 ± 1.

Regarding MYPTLRTRPTCIYVR, the amyloid nucleation score worked out at 1.19 ± 0.53.

On to MYRYLPNSTLLSRVLDTSSY, for which the amyloid nucleation score result was “inactive”.

With MYTSRQNSARNRKLNSIAGF, the amyloid nucleation score was -0.721 ± 0.77.

In the case of MYYCD, the amyloid nucleation score is -0.35 ± 0.54.

For the substance NACFRYKAKMDRMSTRGANS, the amyloid nucleation score is 1.88 ± 0.39.

As to NAVTFLHIVLRENNHGRMHK, the amyloid nucleation score is 6.21 ± 0.073.

Turning to NCACC, the amyloid nucleation score was found to be 6.12 ± 0.065.

In turn, NCFLCSVARNNYVLRCPSSN showed an amyloid nucleation score of 6.07 ± 0.067.

In the case of NCFRLILFVLSDHRQWCFES, the amyloid nucleation score was -1.78 ± 1.7.

On to NCGTVHGHADGSYVCDMGSR, for which the amyloid nucleation score is -0.022 ± 0.98.

NCSGVFKGKSLTSCGT: the amyloid nucleation score was -0.038 ± 0.21.

In the case of NCWFCNRQNSLSGKELYVIR, the amyloid nucleation score result is “inactive”.

As for NCWQLYLKHSVPRRIQRGYA, the amyloid nucleation score is -0.577 ± 0.48.

In the case of NCYLLFFCRLSSLSYAYQVY, the amyloid nucleation score is -0.815 ± 1.2.

NCYMIFVKRLPLC: the amyloid nucleation score was 0.023 ± 0.41.

NDWRCSKGLLGFWRGGTRQA had an amyloid nucleation score of 0.48 ± 0.28.

As for NEFTFSYKYGRHSGRSLKRR, the amyloid nucleation score worked out at 2.32 ± 0.28.

Substance NESDI yielded an amyloid nucleation score of 0.392 ± 0.26.

In the case of NFAPRYLAI, the amyloid nucleation score amounted to 0.295 ± 0.34.

For the substance NFCDSSGI, the amyloid nucleation score was -0.912 ± 1.2.

Take NFCEVYGANIN: the amyloid nucleation score entry was “inactive”.

NFLESSFYFFALVSASLSFN showed an amyloid nucleation score of 0.527 ± 0.25.

In the case of NFPKYGFQGVFRTPMWYGFF, the amyloid nucleation score was -1.63 ± 1.1.

Take NFRLCLWSDAGLIGKAVFGY: the amyloid nucleation score is 0.718 ± 0.39.

Consider NFTIDKRNAMLCVGRLYRSF, for which the amyloid nucleation score turned out to be 1.05 ± 0.5.

In the case of NFTNFW, the amyloid nucleation score was -0.732 ± 0.56.

Turning to NFYTFFQTRGFLSLSACALR, the amyloid nucleation score was -1.12 ± 2.7.

NGFCEVDIVLFRVEVVAACV: the amyloid nucleation score was -0.965 ± 2.4.

As for NGKSAQ, the amyloid nucleation score is 4.05 ± 0.064.

Regarding NGNNQYRPVCDYSYYRRSCS, the amyloid nucleation score was -0.234 ± 1.6.

NGPLHSYYTVWGCMYCLLML yielded an amyloid nucleation score of 3.06 ± 0.23.

NGRTLINQYESLEATGICTV yielded an amyloid nucleation score of 0.684 ± 0.78.

The substance NGTIHMPLVWGYKLDRPRGW showed an amyloid nucleation score of 0.969 ± 0.7.

NGYQCYGILCAFVTWTVYFW: the amyloid nucleation score came out at 1.26 ± 0.79.

NHALYDIWLIALSSRLYCQN came in with an amyloid nucleation score of 0.342 ± 0.4.

Take NHGLYTVFWGCCPWFSQNLF: the amyloid nucleation score turned out to be 7.894 ± 0.073.

Take NHGWVLNSNFYIPRKYSLVR: the amyloid nucleation score was -1.25 ± 0.48.

Consider NIEGRVYRIDSAGGPCIYVL, for which the amyloid nucleation score was -0.621 ± 0.5.

For NIFIFTVSHKPNY, the amyloid nucleation score stood at 7.926 ± 0.057.

Substance NIGMGSTLFLGRMSEQCWCS had an amyloid nucleation score of 2.32 ± 0.14.

As for NIGMRDTGVLLDKLCQV, the amyloid nucleation score is -0.594 ± 0.65.

For NILDMCLKRYIFMLE, the amyloid nucleation score came to 1.44 ± 0.37.

Consider NILGIAHTIGCLLLTFCCTL, for which the amyloid nucleation score result is “inactive”.

For NIRKEGFFRFSPSTADTTCR, the amyloid nucleation score was 0.618 ± 0.71.

NISSQEPISRAATSRKVAGQ gave an amyloid nucleation score of 0.466 ± 1.4.

In the case of NITFEVINQRCD, the amyloid nucleation score worked out at 3.38 ± 0.12.

Take NIVDVKPQKRETIRWLWIIF: the amyloid nucleation score was -0.232 ± 0.2.

As for NKIGRAFVTSYGLRIHSGAG, the amyloid nucleation score was -0.32 ± 0.76.

With NKKNSSLNHSL, the amyloid nucleation score is -0.077 ± 0.43.

Regarding NKQETSKWLWECGDCSRYLY, the amyloid nucleation score was 1.18 ± 0.41.

Regarding NKSNSLYGSLKWGDRAYSSY, the amyloid nucleation score is -1.31 ± 0.71.

Regarding NKWLRCARGTVHWYAAIVGH, the amyloid nucleation score was -0.942 ± 1.1.

Consider NLFSLYGSNFLSP, for which the amyloid nucleation score turned out to be 1.97 ± 0.14.

Substance NLFTTSSCNLIFSTICFD yielded an amyloid nucleation score of 7.281 ± 0.067.

Consider NLGVKDLNTI, for which the amyloid nucleation score was -0.905 ± 0.4.

For the substance NLKVESPGNGSWICTLEWVW, the amyloid nucleation score worked out at 6.645 ± 0.054.

NLLLIMDFVGWV: the amyloid nucleation score was 1.48 ± 0.56.

In the case of NLLTMDIERTGECIDFWVD, the amyloid nucleation score amounted to 0.008 ± 0.38.

As to NLMFSNGSNRSGF, the amyloid nucleation score worked out at 0.142 ± 0.38.

NLNFAAPKGGV: the amyloid nucleation score is -0.735 ± 2.4.

NLSGDDFGVNEKTSRWCQWG returned an amyloid nucleation score of 0.397 ± 1.2.

Regarding NLSGRSLSRLIDLFNRFTC, the amyloid nucleation score is 0.919 ± 0.29.

Turning to NLSLRLFVSLSLIMTVMRVP, the amyloid nucleation score is -0.127 ± 0.4.

NLYMANGDVMCSREGAEQCS registered an amyloid nucleation score of 1.5 ± 0.14.

In the case of NMFNDVGDWTFNKGSFTGTV, the amyloid nucleation score is -0.482 ± 0.41.

Regarding NMLGSFPLTVLRKAWCCGSL, the amyloid nucleation score was determined as 1.04 ± 0.57.

In the case of NMLSLSRAAWKRN, the amyloid nucleation score entry was “inactive”.

Take NMSCCSTPYNPWTSIVPNVM: the amyloid nucleation score stood at 0.103 ± 0.39.

Substance NMVSLMVDSELTFVSLICLE showed an amyloid nucleation score of 3.18 ± 0.064.

Consider NNHFFMILYINKMVYMILKV, for which the amyloid nucleation score came out at 0.38 ± 0.52.

For NNLTVLIWVMPMDRI, the amyloid nucleation score came out at 1.99 ± 0.39.

Turning to NNMRVLLRFLSVVLGSGEVR, the amyloid nucleation score amounted to 1.01 ± 0.67.

In the case of NNMRYTV, the amyloid nucleation score entry was “inactive”.

NNMWSILTAAWDHVCSWRSS registered an amyloid nucleation score of 1.77 ± 0.5.

Regarding NNSSHGCRNVRNSQMSFVPQ, the amyloid nucleation score was -0.165 ± 0.75.

For the substance NPEILCRLKIPFSSCLDSAS, the amyloid nucleation score was determined as 0.341 ± 0.61.

In turn, NPFCFMMRTGRSGSGWVKRR registered an amyloid nucleation score of 0.088 ± 0.54.

As to NPFWWVRPL, the amyloid nucleation score was found to be 0.284 ± 0.81.

Take NPRPH: the amyloid nucleation score was -0.601 ± 0.62.

With NPSQIELRAFRTCMMYCGS, the amyloid nucleation score entry is “inactive”.

Consider NQFMHGTETYFEDINALVWG, for which the amyloid nucleation score stood at 1.43 ± 0.66.

For NQYSFRGLS, the amyloid nucleation score result is “inactive”.

For NRALGMRGVIGPSVWYVVP, the amyloid nucleation score stood at 0.534 ± 0.26.

Take NRARPLVSFMILGSVSECYA: the amyloid nucleation score stood at 0.767 ± 0.21.

NRIKWVKRFSIPFLTWYEDW returned an amyloid nucleation score of 0.499 ± 0.53.

For the substance NRNKVR, the amyloid nucleation score was -0.2 ± 1.1.

In the case of NSATRREPSVVGLYWSVR, the amyloid nucleation score is -2.42 ± 2.7.

Take NSCQNPSEGF: the amyloid nucleation score was -0.376 ± 1.2.

As to NSCWRTGLQVPVSQHYNQTI, the amyloid nucleation score is -0.492 ± 0.61.

Consider NSGESLS, for which the amyloid nucleation score is -0.186 ± 0.85.

For the substance NSHDKVGVSILWTGRSRLVA, the amyloid nucleation score is -0.003 ± 0.45.

NSMLNDCHDKLIIGFSEGWS yielded an amyloid nucleation score of 0.091 ± 0.47.

NSPGYDQVNAYVGFKRRTMS: the amyloid nucleation score is 0.128 ± 0.64.

For NSPPSDHSLKV, the amyloid nucleation score is -0.195 ± 1.4.

The substance NSRNVCFWYVNCCLVHGILG came in with an amyloid nucleation score of 7.543 ± 0.067.

As for NSSCIIPMLWWGHNHHWC, the amyloid nucleation score was 3.43 ± 0.12.

Take NSSHLLVMCDICYNFKVRTL: the amyloid nucleation score was -1.69 ± 1.5.

With NSWDISRSMNVLGNRVNRFP, the amyloid nucleation score is -0.765 ± 0.37.

Turning to NSWKNADVWCNASMHGWSGW, the amyloid nucleation score turned out to be 0.697 ± 0.72.

The substance NTCLH had an amyloid nucleation score of 1.63 ± 0.43.

In the case of NTGRISYFFVVSNPSPYSLR, the amyloid nucleation score was 3.75 ± 0.058.

NTKWLMGSLSIIVCMPKSYW: the amyloid nucleation score came out at 6.294 ± 0.045.

As to NTLCLHDFFHGLILWLSHQA, the amyloid nucleation score worked out at 1.01 ± 0.49.

Substance NTNYGLIQFGILLCRFC gave an amyloid nucleation score of 6.814 ± 0.052.

With NTSELRGNMSRHCKNSGGVI, the amyloid nucleation score was -0.058 ± 0.62.

NTVFVIDESFGVMGWLGLKQ showed an amyloid nucleation score of 0.294 ± 0.82.

On to NVIGSGE, for which the amyloid nucleation score is 1.08 ± 0.51.

The substance NVLVAVFLFYVGPIGVAHCY showed an amyloid nucleation score of 1.12 ± 0.37.

Turning to NVLWGCQPNFVWDAWLRTEH, the amyloid nucleation score stood at 0.777 ± 0.73.

The substance NVMIAIPYVGVDKRGMVSGM registered an amyloid nucleation score of 5.22 ± 0.1.

As to NVSNLGSLMSTYGESCLVNF, the amyloid nucleation score result is “inactive”.

Consider NVTCSHPGFFYSIVKTYMFR, for which the amyloid nucleation score is -0.877 ± 1.9.

As to NVTDAI, the amyloid nucleation score entry was “inactive”.

Regarding NVTNQCMLW, the amyloid nucleation score worked out at 0.509 ± 0.33.

As to NWCTNTRSIFTIRGTDAGTL, the amyloid nucleation score was -0.721 ± 1.1.

NWFLYWT: the amyloid nucleation score turned out to be 3.77 ± 0.11.
